{
  "source": "patent US8969026B2",
  "about": "“Polymeric reverse micelles as selective extraction agents and related methods of MALDI-MS analysis” (University of Massachusetts, priority 2007, dated 2015)",
  "key": {"[1]": {"conditions": "fluorescent pI markers, cited from earlier work; for Pka: second pKa column"}, "[2]": {"assay": "Inverse micelle (polymer 1) extraction of a myoglobin tryptic digest at pH 7.1, MALDI-MS", "type": "physicochemical", "conditions": "myoglobin tryptic digest 1 μM, polymer 1 in toluene, K = Iorg/Iaq, [M+H]+, 3 replicates", "description": "All of the peptides with pI values above 7.1 are extracted effectively, and with only one exception, peptides with pI values below 7.1 are not extracted effectively. Among the peptide fragments tested, the only exception is the peptide N140-G153 (m/z 1553), a peptide fragment that has a pI below 7.1 and still has K>1. […] One of two reasons could explain the observed results: First, because the pH of the solution is so close to the pI of this peptide, a significant fraction of the peptide is positively-charged at pH 7.1 and therefore extracted. Alternatively, the theoretically calculated pI value may be low.\n(§1) A typical biphasic extraction procedure involves mixing 200 μL of a toluene solution of homopolymer 1 or 2 (1×10^−4 M) with 1 mL of an aqueous solution of peptide(s) that was buffered to pH ˜7.0 with 50 mM Tris/TrisHCl. The mixture is vortexed for 10 to 120 minutes and centrifuged at 12000 rpm for 30-40 minutes to break the resulting emulsion and separate the organic and aqueous layers. The top (organic) layer is then recovered and dried to obtain a solid residue. The residue is redissolved into 10 μL of THF and sonicated for 10 seconds to promote solubilization. Finally, 20 μL of an α-CHCA matrix solution (0.16 Min 60:40:0.3% THF:H2O:TFA) are added to the sample for a final volume of 30 μL. For MALDI-MS analysis the samples are applied to the target using the dried-droplet method, where 1 μL of the sample/matrix mixture is spotted on a stainless-steel target, and the solvent is evaporated at room temperature. The residual aqueous phase (˜1 mL) after extraction is also examined by MALDI-MS. Equal amounts (5 μL) of the aqueous phase and the matrix solution (0.16 M α-CHCA in 60:40:0.3% THF:H2O:TFA) are mixed, and 1 μL of the resulting solution is spotted, using the dried droplet method, on a stainless-steel target for MALDI-MS analysis.\nExtraction of the myoglobin digest was done in a manner similar to described above. 1 mL aliquots of a 1×10^−6 M protein digest were buffered at pH 7.1 with 50 mM TRIS, mixed with 200 μL of a toluene solution of homopolymer 1 (1×10^−4 M), extracted, and analyzed by MALDI-MS as detailed above.\nProteolytic digestion. For the myoglobin tryptic digests, 110 μl of protein solution (˜3×10^−4 M in 50 mM TRIS buffer) were mixed with 40 μL of MeOH. The mixture was heated at 60° C. for 10 minutes to denature the protein. 150 μL of a trypsin solution, which contained 2 μg/450 μL of protein, 50 mM TRIS buffer, and 1 mM CaCl2, was added to the denatured protein sample, and the mixture was left to digest at 37° C. for 24 hours. The digestion was stopped by filtering the solution through a 10K MWCO Centricon filter. The filtrates were diluted to the desired concentration and used for extraction and analysis."}, "[3]": {"assay": "pH-dependent biphasic extraction of a peptide mixture with inverse micelles of polymer 1 in toluene, MALDI-MS ion abundance ratio", "type": "physicochemical", "conditions": "polymer 1 inverse micelles in toluene, K = Iorg/Iaq, [M+H]+ signal, [M+K]+ for spinorphin and β-amyloid, at least 4 replicates; for Ion abundance ratio (K ± sM) pH 4.0: aqueous pH 4.0; for Ion abundance ratio (K ± sM) pH 7.1: aqueous pH 7.1; for Ion abundance ratio (K ± sM) pH 9.0: aqueous pH 9.0", "description": "The net charge within the inverse micelle of 1 is negative, affording a selective extraction of positively-charged peptides. In a typical experiment, a toluene solution containing 1 was mixed with an aqueous solution containing a mixture of peptides. After vortexing this mixture, the organic layer was separated and analyzed using MALDI-MS. […] Because the aqueous solution was buffered at a pH of 7.1, peptides with pI values above 7.1 were expected to be sequestered into the interior of the inverse micelles, while peptides with pI values below 7.1 would be mostly excluded based on Coulombic repulsion.\nThe ion abundance ratio is related to the extraction capacity of the polymer, and can be defined as the ratio of the MALDI ion abundance of the peptide in the organic phase that contains the inverse micelles (Iorg) to the ion abundance of the peptide remaining in the aqueous phase (Iaq) (K=Iorg/Iaq). These experiments were performed with the hypothesis that the extraction would be based on electrostatic interaction between the polymer and the peptide. To test this premise further, two control experiments were carried out. […] Therefore, a two-phase extraction experiment was done in the absence of homopolymer 1, and no peptide extraction into the organic phase was observed. Second, peptide extractions using a polymer without the negatively-charged functionality were performed. Polymer 2 contains charge-neutral pentaethyleneglycol functionalities instead of the carboxylic acid moieties. […] These two results are consistent with the hypothesis that the extraction is based on electrostatics.\nWithout limitation to any one theory or mode of operation, the pH of the overall aqueous solution is also likely to dictate the pH of the hydrated interiors of the inverse micelle where the binding takes place. Accordingly, extractions at three different pHs: 4.0, 7.1, and 9.0 were carried out; the results of these experiments are listed in Table 1. […] The results from experiments at pH 7.1 and 9.0 further support this idea. It should be noted that when the experiment is carried out at pH 9.0, the peptide with a pI of 7.7 is extracted to some extent. Such a result could be attributed to errors associated with aqueous solution pH measuring or to errors in the peptide pI calculation. Nonetheless, the tunability is still significant and therefore is a very useful result.\nA Bruker Reflex III time-of-flight mass spectrometer was used to perform MALDI-MS analysis. The mass spectrometer is equipped with a 337-nm nitrogen laser, a 1.0 m flight tube, and a stainless steel sample target. All mass spectra were acquired in reflectron mode using a voltage of 16 kV. All reported spectra represent an average of 70 shots acquired at 30% laser power. The accelerating voltage was set to 20 kV.\nas §1, with “Equal amounts (5 μL) of the aqueous phase and the matrix solution (0.16 M α-CHCA in 60:40:0.3% THF:H2O:TFA) are mixed, and 1 μL of the resulting solution is spotted, using the dried droplet method, on a stainless-steel target for MALDI-MS analysis.” left out"}},
  "data": [
    {"compound": "Nc1ccccc1C(=O)NCCCCCC(=O)O", "note": "[pI marker 3]", "values": [
      {"measurement": "pI", "setting": "[1]", "result": 4.0}
    ]},
    {"compound": "O=C(NCCN1CCOCC1)c1cc2ccccc2c(Br)c1O", "note": "[pI marker 5]", "values": [
      {"measurement": "Pka1", "setting": "[1]", "result": 5.35},
      {"measurement": "pI", "setting": "[1]", "result": 6.2},
      {"measurement": "Pka", "setting": "[1]", "result": 6.95}
    ]},
    {"compound": "O=C(NCCN1CCOCC1)c1cc2ccccc2cc1O", "note": "[pI marker 6]", "values": [
      {"measurement": "Pka1", "setting": "[1]", "result": 6.20},
      {"measurement": "pI", "setting": "[1]", "result": 7.2},
      {"measurement": "Pka", "setting": "[1]", "result": 8.10}
    ]},
    {"compound": "NCCCN1CCN(CCCNC(=O)c2cc3ccccc3cc2O)CC1", "note": "[pI marker 8]", "values": [
      {"measurement": "Pka1", "setting": "[1]", "result": 8.05},
      {"measurement": "pI", "setting": "[1]", "result": 9.0},
      {"measurement": "Pka", "setting": "[1]", "result": 9.85}
    ]},
    {"compound": "NCCCCCCNCCCCCCNC(=O)c1cc2ccccc2cc1O", "note": "[pI marker 9]", "values": [
      {"measurement": "Pka1", "setting": "[1]", "result": 9.95},
      {"measurement": "pI", "setting": "[1]", "result": 10.3},
      {"measurement": "Pka", "setting": "[1]", "result": 10.65}
    ]},
    {"compound": "ALELFRNDIAAK [tryptic fragment of equine myoglobin]", "values": [
      {"measurement": "Ion abundance ratio (K ± sM)", "setting": "[2]", "result": "0.7 ± 0.1"}
    ]},
    {"compound": "ASEDLKKHGTVVLTALGGILK (listed as Equus caballus) [tryptic fragment of equine myoglobin]", "values": [
      {"measurement": "Ion abundance ratio (K ± sM)", "setting": "[2]", "result": "36 ± 4"}
    ]},
    {"compound": "GHHEAELKPLAQSHATK (listed as Equus caballus) [tryptic fragment of equine myoglobin]", "values": [
      {"measurement": "Ion abundance ratio (K ± sM)", "setting": "[2]", "result": "425 ± 61"}
    ]},
    {"compound": "GLSDGEWQQVLNVWGK (listed as Equus caballus) [tryptic fragment of equine myoglobin]", "values": [
      {"measurement": "Ion abundance ratio (K ± sM)", "setting": "[2]", "result": "0.3 ± 0.1"}
    ]},
    {"compound": "HGTVVLTALGGILK (listed as Equus caballus) [tryptic fragment of equine myoglobin]", "values": [
      {"measurement": "Ion abundance ratio (K ± sM)", "setting": "[2]", "result": "32 ± 5"}
    ]},
    {"compound": "HGTVVLTALGGILKK (listed as Equus caballus) [tryptic fragment of equine myoglobin]", "values": [
      {"measurement": "Ion abundance ratio (K ± sM)", "setting": "[2]", "result": "51 ± 10"}
    ]},
    {"compound": "HPGDFGADAQGAMTK (listed as Equus caballus) [tryptic fragment of equine myoglobin]", "values": [
      {"measurement": "Ion abundance ratio (K ± sM)", "setting": "[2]", "result": "0.05 ± 0.004"}
    ]},
    {"compound": "IARRHPYFL (listed as Homo sapiens) [Kinetensin, human peptide purchased from American Peptide Company]", "values": [
      {"measurement": "Ion abundance ratio (K ± sM) pH 4.0", "setting": "[3]", "result": "337 ± 79"},
      {"measurement": "Ion abundance ratio (K ± sM) pH 7.1", "setting": "[3]", "result": "882 ± 212"},
      {"measurement": "Ion abundance ratio (K ± sM) pH 9.0", "setting": "[3]", "result": "616 ± 198"}
    ]},
    {"compound": "KGHHEAELKPLAQSHATK (listed as Equus caballus) [tryptic fragment of equine myoglobin]", "values": [
      {"measurement": "Ion abundance ratio (K ± sM)", "setting": "[2]", "result": "310 ± 0.2"}
    ]},
    {"compound": "KHGTVVLTALGGILK (listed as Equus caballus) [tryptic fragment of equine myoglobin]", "values": [
      {"measurement": "Ion abundance ratio (K ± sM)", "setting": "[2]", "result": "51 ± 10"}
    ]},
    {"compound": "KKGHHEAELKPLAQSHATK (listed as Equus caballus) [tryptic fragment of equine myoglobin]", "values": [
      {"measurement": "Ion abundance ratio (K ± sM)", "setting": "[2]", "result": "140 ± 12"}
    ]},
    {"compound": "LFTGHPETLEK (listed as Equus caballus) [tryptic fragment of equine myoglobin]", "values": [
      {"measurement": "Ion abundance ratio (K ± sM)", "setting": "[2]", "result": "0.02 ± 0.02"}
    ]},
    {"compound": "LFTGHPETLEKFDKFK (listed as Equus caballus) [tryptic fragment of equine myoglobin]", "values": [
      {"measurement": "Ion abundance ratio (K ± sM)", "setting": "[2]", "result": "41 ± 6"}
    ]},
    {"compound": "NDIAAKYKELGFQG (NDLAAKYKELGFQG; listed as Equus caballus) [tryptic fragment of equine myoglobin]", "values": [
      {"measurement": "Ion abundance ratio (K ± sM)", "setting": "[2]", "result": "1.4 ± 0.4"},
      {"measurement": "Ion abundance ratio (K ± sM)", "setting": "[2]; listed as N140-G153", "result": 1.4}
    ]},
    {"compound": "S YSMEHFRWGKPV [ACTH Human]", "values": [
      {"measurement": "Ion abundance ratio (K ± sM) pH 4.0", "setting": "[3]", "result": "221 ± 37"},
      {"measurement": "Ion abundance ratio (K ± sM) pH 7.1", "setting": "[3]", "result": "422 ± 87"},
      {"measurement": "Ion abundance ratio (K ± sM) pH 9.0", "setting": "[3]", "result": "128 ± 41"}
    ]},
    {"compound": "VEADIAGHGQEVLIR (listed as Equus caballus) [tryptic fragment of equine myoglobin]", "values": [
      {"measurement": "Ion abundance ratio (K ± sM)", "setting": "[2]", "result": "0.3 ± 0.04"}
    ]},
    {"compound": "YKELGFQG (listed as Equus caballus) [tryptic fragment of equine myoglobin]", "values": [
      {"measurement": "Ion abundance ratio (K ± sM)", "setting": "[2]", "result": "0.01 ± 0.001"}
    ]},
    {"compound": "YLEFISDAIIHVLHSK (listed as Equus caballus) [tryptic fragment of equine myoglobin]", "values": [
      {"measurement": "Ion abundance ratio (K ± sM)", "setting": "[2]", "result": 0.0}
    ]}
  ]
}
